In US20060292657A1, “Phex substrates and methods using same” (priority 2003, published 2006) one finds Km, kcat and kcat/Km data, which are given here for 1 protein.

What all share (assay): Kinetic parameters for hydrolysis of internally quenched fluorogenic peptides by secPHEX
Format in all cases: biochemical, human
What all share (details): other: 37° C., 10 mM Bis-Tris buffer pH 5.5, 150 mM NaCl

Substrate in data set [1]: CC[C@H](C)[C@H](NC(=O)[C@H](CC(=O)O)NC(=O)[C@H](CC(N)=O)NC(=O)[C@H](CO)NC(=O)CNC(=O)c1ccccc1N)C(=O)N[C@@H](CCSC)C(=O)NCC(=O)N[C@@H](CCC(N)=O)C(=O)NCCNc1ccc([N+](=O)[O-])cc1[N+](=O)[O-]
The method, then: (§1) The human recombinant secPHEX was obtained following the procedure previously described (17, WO 00/50580). Purified secPHEX concentration was determined using the Bradford method (DC protein assay kit; Bio-Rad, Mississauga, ON, Canada). Membrane-bound recombinant human PHEX was expressed in LLC-PK1 cells (17, (WO 00/50580)) and membranes were prepared essentially as described by Guo et al. (34). Briefly, transfected cells resuspended in lysis buffer (150 mM NaCl, 20 mM Tris.HCl, pH 7.6) were disrupted by sonication. Cell debris were removed by centrifugation at 300 g for 15 min at 4 °C. Membranes were collected by centrifugation at 30,000 g for 50 min and solubilized for 2h with 1% n-dodecyl-β-D-maltoside in lysis buffer. Insoluble material was pelleted by centrifugation at 10,000 g for 15 min and protein concentrations of the supernatant determined using the Bradford method described above. PHEX amounts were evaluated by immunoblotting as described previously (17). NEP expression and purification were performed as described previously (36).
(§2) The hydrolysis of the IQFPs, at 37° C., in 10 mM Bit-Tris buffer pH 5.5 (0.35 to 1.0 ml final volume) containing 150 mM NaCl, was continuously followed measuring the fluorescence at γem=420 nm and γex=320 nm in a Hitachi F-2000™ spectrofluorometer. The cuvefte containing the buffer and the substrate was placed in a thermostatically controlled cell compartment for 5 min before the addition of the enzyme and the increase in fluorescence with time was continuously recorded for 5-10 min. The enzyme concentration for initial rate determination was chosen at a level intended to hydrolyze less than 5% of the substrate present. The slope was converted into micromoles of substrate hydrolyzed per min based on a calibration curve obtained from complete hydrolysis of each peptide. The inner-filter effect was corrected using an empirical equation as previously described (43). The kinetic parameters Km and kcat were calculated by the non-linear regression data analysis Grafit program (42). The kcat/Km values were calculated as the ratio of these two determined parameters. The apparent second order rate constant kcat/Km (*kIt/Km) was determined under pseudo first-order conditions, where [S]<<Km. These determinations were performed in two different substrate concentrations and the errors were less than 5% for any obtained value.
(§3) To determine the position of cleavage in peptides of the IQFPs combinatorial libraries, the products resulting from hydrolysis by secPHEX were submitted to N-terminal amino acid sequencing in a PPSQ-23protein sequencer (Shimadzu Tokyo, Japan). The scissile bonds in the IQFPs secPHEX substrates derived from PTHrP107-139, FGF-23and MEPE were determined by amino acid sequencing and by MALDI-TOF™ mass spectrometry (TofSpec-E™, Micromass, Manchester, U.K.) after isolation of the fragments resulting from the hydrolysis by secPHEX by analytical HPLC.
(§4) The assays were performed at 37° C., in 10 mM Bis-Tris buffer pH 5.5, containing 150 mM NaCl. Measurements were made as described under the heading “Experimental Procedures” above. Cleavage sites are indicated as arrows (↓). The standard deviations of the kinetic constants were less than 5%.
(§5) The assays were performed at 37° C., in 10 mM Bis-Tris buffer pH 5.5, containing 150 mM NaCl. Measurements were made as described under the heading “Experimental Procedures” above. Cleavage sites are indicated by arrows (↓). The standard deviations of the kinetic constants were less than 5%.
(§6) The assays were. performed at 37° C., in 10 mM Bis-Tris buffer pH 5.5, containing 150 mM NaCl. Measurements were made as described under the heading “Experimental Procedures” above. Cleavage sites are indicated by arrows (↓). The standard deviations of the kinetic constants were less than 5%.
(§7) The assays were performed at 37° C., in 10 mM Bis-Tris buffer pH 5.5, containing 150 mM NaCl. Measurements were made as described under “Experimental Procedures”. […]

Substrate in data set [2]: C[C@H](NC(=O)[C@H](C)NC(=O)[C@H](CC(=O)O)NC(=O)[C@H](CO)NC(=O)[C@H](CO)NC(=O)CNC(=O)c1ccccc1N)C(=O)N[C@@H](CCC(=O)O)C(=O)N[C@@H](CCC(N)=O)C(=O)NCCNc1ccc([N+](=O)[O-])cc1[N+](=O)[O-]
The method, then: as §1, §2, §3, §4, §5, §6, §7

Substrate in data set [3]: C[C@H](NC(=O)[C@H](CO)NC(=O)c1ccccc1N)C(=O)N[C@@H](CCC(=O)O)C(=O)N[C@@H](CC(=O)O)C(=O)N[C@@H](CC(N)=O)C(=O)N[C@@H](CO)C(=O)N1CCC[C@H]1C(=O)N[C@@H](CCC(N)=O)C(=O)NCCNc1ccc([N+](=O)[O-])cc1[N+](=O)[O-]
The method, then: as §1, §2, §3, §4, §5, §6, §7

Substrate in data set [4]: NC(=O)CC[C@H](NC(=O)[C@H](Cc1ccc(O)cc1)NC(=O)[C@H](CC(=O)O)NC(=O)[C@H](CO)NC(=O)[C@H](Cc1ccccc1)NC(=O)CNC(=O)c1ccccc1N)C(=O)NCCNc1ccc([N+](=O)[O-])cc1[N+](=O)[O-]
How it is done:
as §1, §2, §3, §4, §5, §6, §7

Substrate in data set [5]: NC(=O)[C@H](CCCCNc1ccc([N+](=O)[O-])cc1[N+](=O)[O-])NC(=O)[C@H](Cc1ccc(O)cc1)NC(=O)[C@H](CC(=O)O)NC(=O)[C@H](CO)NC(=O)[C@H](Cc1ccccc1)NC(=O)CNC(=O)c1ccccc1N
The method, then:
as §1, §2, §3, §4, §5, §6, §7

B1: human recombinant secPHEX (Homo sapiens) (protein)
chain: SLQAKQEYCLKPECIEAAAAILSKVNLSVDPCDNFFRFACDGWISNNPIPEDMPSYGVYPWLRHNVDLKLKELLEKSISRRRDTEAIQKAKILYSSCMNEKAIEKADAKPLLHILRHSPFRWPVLESNIGPEGVWSERKFSLLQTLATFRGQYSNSVFIRLYVSPDDKASNEHILKLDQATLSLAVREDYLDNSTEAKSYRDALYKFMVDTAVLLGANSSRAEHDMKSVLRLEIKIAEIMIPHENRTSEAMYNKMNISELSAMIPQFDWLGYIKKVIDTRLYPHLKDISPSENVVVRVPQYFKDLFRILGSERKKTIANYLVWRMVYSRIPNLSRRFQYRWLEFSRVIQGTTTLLPQWDKCVNFIESALPYVVGKMFVDVYFQEDKKEMMEELVEGVRWAFIDMLEKENEWMDAGTKRKAKEKARAVLAKVGYPEFIMNDTHVNEDLKAIKFSEADYFGNVLQTRKYLAQSDFFWLRKAVPKTEWFTNPTTVNAFYSASTNQIRFPAGELQKPFFWGTEYPRSLSYGAIGVIVGHEFTHGFDNNGRKYDKNGNLDPWWSTESEEKFKEKTKCMINQYSNYYWKKAGLNVKGKRTLGENIADNGGLREAFRAYRKWINDRRQGLEEPLLPGITFTNNQLFFLSYAHVRCNSYRPEAAREQVQIGAHSPPQFRVNGAISNFEEFQKAFNCPPNSTMNRGMDSCRLW
notes: pure soluble form of PHEX (secPHEX); made in house
With B1, the Km in data set [1] is 13.0 µM; in data set [2], 2.4 µM; in data set [3], 22.0 µM; in data set [4] it was 13.3 µM; in data set [5] it was 53.2 µM. In addition, the kcat in data set [1] stood at 0.01 s⁻¹; in data set [2], 0.3 s⁻¹; in data set [3], 0.3 s⁻¹; in data set [4] it was 0.6 s⁻¹; in data set [5], 1.3 s⁻¹. In addition, the kcat/Km came out at 800 M⁻¹ s⁻¹ in data set [1]; 125000 M⁻¹ s⁻¹ in data set [2]; 13600 M⁻¹ s⁻¹ in data set [3]; 45100 M⁻¹ s⁻¹ in data set [4]; 24400 M⁻¹ s⁻¹ in data set [5].

As usually defined, the Km is the substrate concentration at which the rate is half of its maximum. Usually kcat stands for the number of substrate molecules converted per active site and unit of time at saturation. Broadly, the kcat/Km is the second-order rate constant that governs catalysis at low substrate concentration.
